We go through 13 molecules from patent US20210380703A1 (RIGEL PHARMACEUTICALS, published 2021).

The target in assay [1] is ACVR2A on primary human myotubes (human, UniProt P27037 20-513). As to the kind of experiment: cell-based or functional assay.
Assay [2] concerns the target T1, biotinylated goat anti-human kappa light chain.
T1 construct: Positive control of the ELISA
As to the kind of experiment: ELISA, positive control. Note: test concentration or dose not given here. The method in brief:
(§1)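 Binding signal was read by ELISA after ACVR2A-specific monoclonal antibodies were tested against human ACVR2A and mouse ACVR2A, with human Fc as the negative control.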
Background: An ELISA detects its analyte on a solid surface through an enzyme-linked reagent.

The target of assay [3] is T2, human ACVR2A (human, UniProt P27037 20-135, limits assumed).
T2 construct: also called activin receptor, type II A
As to the kind of experiment: ELISA. The method in brief:
as §1

Assay [4] addresses mouse ACVR2A (mouse, UniProt P27038 20-135, limits assumed). As to the kind of experiment: ELISA. The method in brief:
as §1
Throughout, for optical density: test concentration or dose not given here.

T2 sequence (P27037 20-135 limits assumed): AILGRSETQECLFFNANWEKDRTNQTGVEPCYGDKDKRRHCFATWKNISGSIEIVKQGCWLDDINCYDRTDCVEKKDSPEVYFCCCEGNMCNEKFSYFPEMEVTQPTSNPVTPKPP
Sequence of mouse ACVR2A (P27038 20-135 limits assumed): as the sequence (P27037 20-135 limits assumed) above, with K20R, V73I counted along it
Sequence of ACVR2A on primary human myotubes (P27037 20-513): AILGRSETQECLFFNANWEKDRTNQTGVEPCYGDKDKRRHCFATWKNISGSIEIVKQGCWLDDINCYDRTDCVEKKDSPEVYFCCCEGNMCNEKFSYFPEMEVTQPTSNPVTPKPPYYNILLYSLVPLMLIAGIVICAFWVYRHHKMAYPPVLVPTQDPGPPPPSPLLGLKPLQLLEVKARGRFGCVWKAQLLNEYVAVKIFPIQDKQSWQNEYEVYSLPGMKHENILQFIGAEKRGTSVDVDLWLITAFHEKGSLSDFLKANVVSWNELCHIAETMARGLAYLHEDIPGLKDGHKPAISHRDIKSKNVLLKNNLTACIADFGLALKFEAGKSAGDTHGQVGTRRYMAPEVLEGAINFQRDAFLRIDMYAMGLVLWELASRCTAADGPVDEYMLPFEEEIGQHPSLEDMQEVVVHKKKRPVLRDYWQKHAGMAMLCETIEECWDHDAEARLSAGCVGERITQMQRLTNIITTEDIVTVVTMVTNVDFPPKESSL

B1: 374_A05 (antibody, V domains shown)
VH: EVQLLESGGGLVQPGGSLRLSCAASGFTFSDYGMNWVRQAPGKGLEWVANINYNGGYKGYADSVKGRFTISRDNSKNTLYLQMNSLRAEDTAVYYCARGATWHDTHLDYWGQGTLVTVSS
VL: DIQMTQSPSSLSASVGDRVTITCRASQSIVRYLNWYQQKPGKAPKLVIYAATSLASGVPSRFSGSGSGTDFTLTISSLQPEDFATYYCQQSYELPLTFGGGTKVEIK
Take B1: in assay [1], the “Phospho-SMAD3 Human Skeletal Muscle GDF8” value was determined as 0.0081.

B2: 368_H10 (antibody, V domains shown)
VH: EVQLLESGGGLVQPGGSLRLSCAASGFTFSSYSMNWVRQAPGKGLEWVSSINYNSGYKGYADSVKGRFTISRDNSKNTLYLQMNSLRAEDTAVYYCARSATWHDTHLDYWGQGTLVTVSS
VL: DIQMTQSPSSLSASVGDRVTITCRASQSIVSYVNWYQQKPGKAPKLVIYAVTSLASGVPSRFSGSGSGTDFTLTISSLQPEDFATYYCQQSYETPLTFGGGTKVEIK
notes: VH and VL only
As to B2, the optical density in assay [2] was 3.36 OD; in assay [3], 2.28 OD; in assay [4] it was 2.16 OD.

B3: 374_C03 (antibody, V domains shown)
VH: EVQLLESGGGLVQPGGSLRLSCAASGFTFDSYSMNWVRQAPGKGLEWVSGINYNSGYTSYADSVKGRFTISRDNSKNTLYLQMNSLRAEDTAVYYCARSANWHDTALDYWGQGTLVTVSS
VL: DIQMTQSPSSLSASVGDRVTITCRASQSILTYLNWYQQKPGKAPKLLIYAATSRASGVPSRFSGSGSGTDFTLTISSLQPEDFATYYCQQSYDSPLTFGGGTKVEIK
For the molecule B3, the “Phospho-SMAD3 Human Skeletal Muscle GDF8” value in assay [1] came to 0.0094.

B4: 376_C07 (antibody, V domains shown)
VH: EVQLLESGGGLVQPGGSLRLSCAASGFTFSSYSMNWVRQAPGKGLEWVSGINYNSGYKGYADSVKGRFTISRDNSKNTLYLQMNSLRAEDTAVYYCARSATWHDTHLDYWGQGTLVTVSS
VL: DIQMTQSPSSLSASVGDRVTITCRASQSILSYVNWYQQKPGKAPKLLIYAATSRHSGVPSRFSGSGSGTDFTLTISSLQPEDFATYYCQQSYDLPLTFGGGTKVEIK
notes: VH and VL only
With B4, the optical density in assay [2] is 3.42 OD; in assay [3], 3.7 OD; in assay [4], 3.71 OD.

B5: 376_G01 (antibody, V domains shown)
VH: EVQLLESGGGLVQPGGSLRLSCAASGFTFDDYSMNWVRQAPGKGLEWVSGINYNSGYKSYADSVKGRFTISRDNSKNTLYLQMNSLRAEDTAVYYCARSATWHDTHLDYWGQGTLVTVSS
VL: DIQMTQSPSSLSASVGDRVTITCRASQSILSYVNWYQQKPGKAPKLVIYAVTSRASGVPSRFSGSGSGTDFTLTISSLQPEDFATYYCQQSYELPLTFGGGTKVEIK
notes: VH and VL only
For the molecule B5, the optical density was 3.18 OD in assay [2], 3.34 OD in assay [3] and 3.66 OD in assay [4].

B6: 375_B10 (antibody, V domains shown)
VH: EVQLLESGGGLVQPGGSLRLSCAASGFTFDSYSMNWVRQAPGKGLEWVSGINYNSGYTSYADSVKGRFTISRDNSKNTLYLQMNSLRAEDTAVYYCARSATWHDTHLDYWGQGTLVTVSS
VL: DIQMTQSPSSLSASVGDRVTITCRASQSILSYLNWYQQKPGKAPKLLIYAATSRHSGVPSRFSGSGSGTDFTLTISSLQPEDFATYYCQQSYDLPLTFGGGTKVEIK
notes: VH and VL only
As to B6, the optical density in assay [2] came to 3.14 OD; in assay [3] it was 3.65 OD; in assay [4], 3.74 OD.

B7: 376_E09 (antibody, V domains shown)
VH: EVQLLESGGGLVQPGGSLRLSCAASGFTFDSYSMNWVRQAPGKGLEWVSGINYNSGYKSYADSVKGRFTISRDNSKNTLYLQMNSLRAEDTAVYYCARSATWHDTHLDYWGQGTLVTVSS
VL: DIQMTQSPSSLSASVGDRVTITCRASQSILTYLNWYQQKPGKAPKLLIYAATSRHSGVPSRFSGSGSGTDFTLTISSLQPEDFATYYCQQSYDTPLTFGGGTKVEIK
notes: VH and VL only
As for B7, the optical density stood at 3.48 OD in assay [2], 3.74 OD in assay [3] and 3.76 OD in assay [4].

B8: 375_F01 (antibody, V domains shown)
VH: EVQLLESGGGLVQPGGSLRLSCAASGFTFSSYSMNWVRQAPGKGLEWVSSINYNSGYTGYADSVKGRFTISRDNSKNTLYLQMNSLRAEDTAVYYCARSATWHDTHLDYWGQGTLVTVSS
VL: DIQMTQSPSSLSASVGDRVTITCRASQSIVSYLNWYQQKPGKAPKLVIYAATSRASGVPSRFSGSGSGTDFTLTISSLQPEDFATYYCQQSYDNPLTFGGGTKVEIK
notes: VH and VL only
Consider B8, for which the results for the optical density in assay [2], in assay [3] and in assay [4] were 2.96 OD, 3.16 OD and 3.46 OD, respectively.

B9: 376_A01 (antibody, V domains shown)
VH: EVQLLESGGGLVQPGGSLRLSCAASGFTFDSYGMNWVRQAPGKGLEWVSNINYNGGYTGYADSVKGRFTISRDNSKNTLYLQMNSLRAEDTAVYYCARSATWHDTHLDYWGQGTLVTVSS
VL: DIQMTQSPSSLSASVGDRVTITCRASQSIVSYLNWYQQKPGKAPKLLIYAATSRASGVPSRFSGSGSGTDFTLTISSLQPEDFATYYCQQSYSTPLTFGGGTKVEIK
notes: VH and VL only
On to B9, for which the optical density in assay [2] came to 2.98 OD; in assay [3], 3.24 OD; in assay [4], 3.66 OD.

B10: 376_G11 (antibody, V domains shown)
VH: EVQLLESGGGLVQPGGSLRLSCAASGFTFSSYSMNWVRQAPGKGLEWVSGINYNSGYKSYADSVKGRFTISRDNSKNTLYLQMNSLRAEDTAVYYCARSATWHDTHLDYWGQGTLVTVSS
VL: DIQMTQSPSSLSASVGDRVTITCRASQSIVTYVNWYQQKPGKAPKLVIYAATSLASGVPSRFSGSGSGTDFTLTISSLQPEDFATYYCQQSYNLPLTFGGGTKVEIK
notes: VH and VL only
With B10, the optical density in assay [2] worked out at 3.54 OD; in assay [3] it was 3.65 OD; in assay [4], 3.6 OD.

B11: 375_G12 (antibody, V domains shown)
VH: EVQLLESGGGLVQPGGSLRLSCAASGFTFDSYGMHWVRQAPGKGLEWVSSINYNGGYTSYADSVKGRFTISRDNSKNTLYLQMNSLRAEDTAVYYCARSATWHDTHLDYWGQGTLVTVSS
VL: DIQMTQSPSSLSASVGDRVTITCRASQSIVSYVNWYQQKPGKAPKLLIYAATSRHSGVPSRFSGSGSGTDFTLTISSLQPEDFATYYCQQSYDTPLTFGGGTKVEIK
notes: VH and VL only
As for B11, the optical density in assay [2] came to 3.3 OD; in assay [3], 3.36 OD; in assay [4], 3.29 OD.

B12: 376_H08 (antibody, V domains shown)
VH: EVQLLESGGGLVQPGGSLRLSCAASGFTFDSYGMNWVRQAPGKGLEWVSNINYNGGYKGYADSVKGRFTISRDNSKNTLYLQMNSLRAEDTAVYYCARSATWHDTHLDYWGQGTLVTVSS
VL: DIQMTQSPSSLSASVGDRVTITCRASQSILTYLNWYQQKPGKAPKLLIYAATSRHSGVPSRFSGSGSGTDFTLTISSLQPEDFATYYCQQSDSLPLTFGGGTKVEIK
notes: VH and VL only
As for B12, the optical density in assay [2] worked out at 3.53 OD; in assay [3] it was 3.31 OD; in assay [4] it was 3.28 OD.

B13: 375_G10 (antibody, V domains shown)
VH: EVQLLESGGGLVQPGGSLRLSCAASGFTFSSYGMNWVRQAPGKGLEWVSSINYNGGYKSYADSVKGRFTISRDNSKNTLYLQMNSLRAEDTAVYYCARSATWHDTHLDYWGQGTLVTVSS
VL: DIQMTQSPSSLSASVGDRVTITCRASQSIVTYLNWYQQKPGKAPKLVIYAATSRHSGVPSRFSGSGSGTDFTLTISSLQPEDFATYYCQQSYDTPLTFGGGTKVEIK
notes: VH and VL only
In the case of B13, the optical density in assay [2] was determined as 3.3 OD; in assay [3], 3.48 OD; in assay [4] it was 3.64 OD.
